Molecular target: YFP-tagged CaV1.3 IQ domain, prototypic (IQDY) (rat)
Test: FRET or BRET

- K (a,EFF) (reciprocal D (free) units): 0.000588
- Ka: 1.8e+07 M⁻¹
- Kd: 55 nM
Substance: CFP-tagged calmodulin, wild type (CFP-CaMWT) (from UniProt P0DP29 1-149) (natural protein)
